Residue numbers refer to the chain shown, from its start.

The values below come from US20260207766A1 (Bristol-Myers Squibb, published 2026).

In assay [1] the target is T1, human CEACAM5 on cells (human, UniProt P06731 35-685).
T1 construct: Endogenous on MKN45, Ls174T, BxPC-3; overexpressed on HCT116; also called huCEACAM5; HCT116-huCEACAM5
T1 sequence: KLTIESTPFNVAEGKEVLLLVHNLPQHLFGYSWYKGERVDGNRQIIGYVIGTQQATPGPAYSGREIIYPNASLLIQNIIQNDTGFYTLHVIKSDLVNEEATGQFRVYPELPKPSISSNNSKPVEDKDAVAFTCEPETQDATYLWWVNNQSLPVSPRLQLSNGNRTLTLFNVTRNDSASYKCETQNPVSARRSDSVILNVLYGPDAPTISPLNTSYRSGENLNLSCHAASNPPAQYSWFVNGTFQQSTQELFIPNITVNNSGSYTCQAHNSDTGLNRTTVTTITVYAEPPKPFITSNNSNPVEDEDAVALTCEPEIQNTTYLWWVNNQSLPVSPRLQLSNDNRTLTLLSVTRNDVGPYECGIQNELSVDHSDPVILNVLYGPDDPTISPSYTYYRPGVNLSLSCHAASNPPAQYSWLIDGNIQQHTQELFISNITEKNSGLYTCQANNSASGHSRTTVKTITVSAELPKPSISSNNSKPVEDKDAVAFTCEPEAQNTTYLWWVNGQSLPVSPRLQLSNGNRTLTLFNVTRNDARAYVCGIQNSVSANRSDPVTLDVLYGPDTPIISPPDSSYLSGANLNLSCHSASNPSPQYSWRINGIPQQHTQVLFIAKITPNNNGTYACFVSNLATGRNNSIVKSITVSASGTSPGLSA
The assay is described as follows: FACS on LS174T cells.

Assay [2] has as its target T1, human CEACAM5 on cells. Kind of assay: FACS on MKN45 cells.
The target in assay [3] is T1, human CEACAM5 on cells. Kind of assay: cell-based or functional assay.
The target in assay [4] is T1, human CEACAM5 on cells. The assay is described as follows: FACS on BxPC3 cells.
The target in assay [5] is T2, full-length human CEACAM5 (recombinant, internally generated) (human, UniProt P06731 35-685, limits assumed).
T2 construct: Printed only as 'full-length'; also called Full-length huCEACAM5; biotinylated human CEACAM5
T2 sequence: T1 sequence
Kind of assay: SPR Biacore, mAb captured on anti-human Fc, full-length antigen analyte, 1:1 fit. The source says:
The BIACORE® instrument was primed with 1×HBSP+ running buffer (Cytiva catalog no. BR100671). The CM5 chip (Cytiva catalog no. 29149604) was equilibrated to room temperature, and the BIACORE® instrument was re-primed. A human antibody Fc capture kit (Cytiva catalog no. 29234600) was utilized for this analysis. The human antibody Fc capture reagent was immobilized to both flow cells in all 8 flow channels of the CM5 chip via amine-coupling using the following conditions. Immobilization was performed at a temperature of 25° C. The anti-human Fc capture reagent was diluted to a concentration of 25 μg/mL in acetate pH5 buffer. The chip surface was activated by injecting a mixture of 1-ethyl-3-(-3-dimethylaminopropyl) carbodiimide hydrochloride (EDC) and N-hydroxy succinimide (NHS) for 420 seconds at a rate of 10 microliters per minute (uL/min). A concentration (25 ug/mL) of anti-human Fc capture reagent was then injected on the surface for 420 seconds at a rate of 10 uL/min. The remaining chip surface was blocked by injecting ethanolamine for 420 seconds at a rate of 10 uL/min.
The SPR kinetics against full-length human and cyno CEACAM5 were set up as follows. The antibody capture was performed by diluting the antibodies to a concentration of 10 nM in HBSP+ buffer. The 10 nM mAbs were captured for 20 seconds at 5 uL/min to achieve capture levels of approximately 100 RU. […] The association rate was 180 seconds at 30 uL/min. The dissociation rate was 600 seconds at 30 uL/min. Regeneration was performed using two injections of 3M magnesium chloride MgCl₂ for 30 seconds at 30 uL/min. A data fit was performed using a 1:1 binding model with global Rmax. Rmax reflects the maximal response when all ligand is occupied.

For assay [6], the target named is T3, human CEACAM6 on HCT116 cells (human, UniProt P40199 35-320).
T3 construct: whole, on cells; also called HCT116-huCEACAM6
T3 sequence (looked up): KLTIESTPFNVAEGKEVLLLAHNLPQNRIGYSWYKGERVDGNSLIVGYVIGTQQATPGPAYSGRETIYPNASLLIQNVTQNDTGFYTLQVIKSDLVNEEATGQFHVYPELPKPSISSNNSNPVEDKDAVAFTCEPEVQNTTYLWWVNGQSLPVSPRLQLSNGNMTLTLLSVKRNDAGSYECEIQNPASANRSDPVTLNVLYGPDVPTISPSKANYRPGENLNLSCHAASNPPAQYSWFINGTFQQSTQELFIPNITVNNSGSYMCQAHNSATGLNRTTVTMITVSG
The assay is described as follows: flow cytometry on HCT-116 (CEACAM-6) cells.

Assay [7] concerns the target T4, human CEACAM1 on CHO-S cells (human, UniProt P13688 35-526).
T4 construct: whole, on cells; also called CHO-S-huCEACAM1
T4 sequence (looked up): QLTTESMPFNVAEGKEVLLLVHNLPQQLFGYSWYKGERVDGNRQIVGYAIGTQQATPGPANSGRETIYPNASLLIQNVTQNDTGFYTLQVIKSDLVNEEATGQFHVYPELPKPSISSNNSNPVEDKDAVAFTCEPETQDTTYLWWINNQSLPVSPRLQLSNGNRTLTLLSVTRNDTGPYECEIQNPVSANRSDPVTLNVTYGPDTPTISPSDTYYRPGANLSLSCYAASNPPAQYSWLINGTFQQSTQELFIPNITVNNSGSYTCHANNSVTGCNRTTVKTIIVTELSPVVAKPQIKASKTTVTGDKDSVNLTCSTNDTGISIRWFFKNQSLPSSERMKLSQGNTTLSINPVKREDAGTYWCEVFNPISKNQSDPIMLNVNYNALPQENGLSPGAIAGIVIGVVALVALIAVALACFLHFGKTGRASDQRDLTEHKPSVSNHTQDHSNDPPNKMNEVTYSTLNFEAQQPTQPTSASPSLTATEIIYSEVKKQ
Kind of assay: flow cytometry on CHO-S (CEACAM-1) cells.

In assay [8] the target is T5, human CEACAM8 (R&D Systems catalog #9639-CM-050) (human, UniProt P31997 35-320, limits assumed).
T5 sequence (looked up): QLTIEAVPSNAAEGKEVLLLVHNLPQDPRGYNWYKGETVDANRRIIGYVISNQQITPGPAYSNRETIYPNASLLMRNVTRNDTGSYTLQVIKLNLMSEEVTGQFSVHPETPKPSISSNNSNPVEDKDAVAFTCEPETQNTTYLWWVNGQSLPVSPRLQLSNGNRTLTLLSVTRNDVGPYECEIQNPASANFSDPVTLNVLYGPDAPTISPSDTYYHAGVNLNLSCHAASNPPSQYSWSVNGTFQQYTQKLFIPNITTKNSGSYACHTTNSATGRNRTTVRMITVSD
Kind of assay: SPR.

Assay [9] deals with T6, human CEACAM7 (R&D Systems catalog #9010-CM-050) (human, UniProt Q14002 36-242, limits assumed).
T6 sequence (looked up): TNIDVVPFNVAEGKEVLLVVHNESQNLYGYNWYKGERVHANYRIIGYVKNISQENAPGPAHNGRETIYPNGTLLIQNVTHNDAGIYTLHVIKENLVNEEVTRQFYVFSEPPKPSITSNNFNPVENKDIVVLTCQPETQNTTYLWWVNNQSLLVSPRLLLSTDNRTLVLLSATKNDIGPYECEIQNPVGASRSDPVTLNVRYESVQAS
The assay is described as follows: SPR.

Assay [10] addresses T1, human CEACAM5 on cells. The assay is described as follows: cell binding, MKN45 cells.
In assay [11] the target is T7, 6xHis-A3-B3 huCEACAM5 (human, UniProt P06731 501-685, N-linked glycans (seven predicted sites)).
T7 construct: For cryo-EM it was expressed in Expi293F GnTI- cells; also called hCEACAM5-A3-B3 construct; human CEACAM5 A3-B3 domain protein
T7 sequence: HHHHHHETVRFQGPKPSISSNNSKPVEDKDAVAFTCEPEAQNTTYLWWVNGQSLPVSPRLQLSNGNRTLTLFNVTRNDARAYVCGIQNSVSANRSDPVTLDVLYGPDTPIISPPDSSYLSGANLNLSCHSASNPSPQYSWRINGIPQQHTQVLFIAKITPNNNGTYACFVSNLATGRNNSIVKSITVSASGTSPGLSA
The assay is described as follows: SPR Biacore 8K 37C, mAb captured on anti-human Fc, antigen analyte, 1:1 Langmuir fit.

Assay [12] has as its target T4, human CEACAM1 on CHO-S cells. Kind of assay: flow cytometry, CHO-S cells overexpressing human CEACAM1.
For assay [13], the target named is T7, 6xHis-A3-B3 huCEACAM5. The assay is described as follows: cryo-EM of CEACAM5 A3-B3 with both Fabs. Here is the method:
Below is a description of the different steps and methods that were performed.
After the incubation period, 50 μl of complexing reaction solution was passed through a Bio-Spin 30 Size-exclusion chromatography column (30 kDa MWCO, BioRad) to remove any contaminants and Apo-CEACAM5. Prior to use, Bio-Spin 30 columns were equilibrated with 1×PBS, and samples were applied according to the manufacturer's protocol.

B1: MBP003 (antibody, V domains shown)
VH: QVQLVESGGGVVQPGRSLRLSCAASGITFSSHGMHWVRQAPGKGLEWVTFISYDGSYKSYVDSVKGRFTISRDNSKNTLYLQMNSLRAEDTAVYYCATGLTGTGAFDIWGQGTMVTVSS
VL: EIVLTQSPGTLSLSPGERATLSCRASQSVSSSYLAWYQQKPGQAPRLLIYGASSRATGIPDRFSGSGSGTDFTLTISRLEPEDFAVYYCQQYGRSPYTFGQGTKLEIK
notes: also called hIgG1 form of MBP004
As for B1, the results for the EC50 in assay [1], in assay [2] and in assay [4] were 1.7 nM, 2.4 nM and 1.9 nM, respectively. The “Ls174T 5-day cytotoxicity (AUC), antibody conjugated to Compound A'” value in assay [3] is 18500. Further, the “MKN45 5-day cytotoxicity (AUC), antibody conjugated to Compound A'” value in assay [3] worked out at 24400. Moreover, the Kd in assay [5] is 23.4 nM. For the same molecule, the koff in assay [5] is 0.000982 s⁻¹. For the same molecule, the kon in assay [5] stood at 42000 M⁻¹ s⁻¹. Besides, the binding result in assay [6] is listed as “no binding (tested: 300 nM)”; in [7] it was “no binding (tested: 300 nM)”; in assay [8] it was “no binding”; in assay [9] it was “no binding”.

B2: MBN001 (antibody, V domains shown)
VH: B1 VH with S7T, A40S, T69A, A88P
VL: not shown
notes: also called mAb MBN001; MBN001 parent
As for B2, the EC50 in assay [10] was determined as 33.8 nM; in assay [1], 1.7 nM; in assay [2] it was 2.2 nM; in assay [4] it was 1.8 nM. Further, in [11], the Kd was 129 nM. Moreover, the binding result in [6] is “no binding (tested: 300 nM)”; in assay [12], “no binding”.

B3: MBP002 (antibody, IgG1, V domains shown)
VH: B1 VH with G104N, F106L
VL: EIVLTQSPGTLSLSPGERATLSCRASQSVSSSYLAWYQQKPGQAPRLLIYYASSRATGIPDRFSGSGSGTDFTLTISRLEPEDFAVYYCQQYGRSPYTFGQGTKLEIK
notes: also called hIgG1 form of MBP008
In the case of B3, the EC50 in assay [1] is 1.5 nM; in assay [2], 2.1 nM; in assay [4], 1.9 nM. The “Ls174T 5-day cytotoxicity (AUC), antibody conjugated to Compound A'” value in assay [3] is 18900. In assay [3], the “MKN45 5-day cytotoxicity (AUC), antibody conjugated to Compound A'” value came to 24100. Further, the Kd in [5] was 5.26 nM. Further, the koff in assay [5] came out at 0.000228 s⁻¹. Besides, the on-rate constant (kon) in assay [5] turned out to be 43300 M⁻¹ s⁻¹. For the same molecule, the binding result in assay [6] was “no binding (tested: 300 nM)”; in assay [7] it was “no binding (tested: 300 nM)”; in [8] it was “no binding”; in [9], “no binding”.

B4: Fab of bin 2 mAb (Fab, V domains shown)
VH: QVQLQESGPGLVKPSGTLSLTCAVSGGSISSSDWWSWVRQPPGKGLEWIGEIYHQGSTNYNPSLKSRVTISVDKSKNQFSLKLSSVTAADTAVYYCARASSSGYYGHDVWGQGTTVTVSS
VL: DIQLTQSPSFLSASVGDRVTITCRASQGISTYLAWYQQKPGKAPKFLIYAEKTLQSGVPSRFSGSGSGTEFTLTISSLQPEDFATYYCQQLASYPFTFGPGTKVDIKR
notes: also called anti-CEACAM5 bin2 mAb Fab
As to B4, the binding result in assay [13] is on record as “binds”.
